Molecular target: T1, DPY-22 PQ-rich domain (C. elegans, UniProt Q20497 2142-3498, limits assumed)
T1 construct: domain: PQ-rich domain; Expressed in yeast from a Clontech two-hybrid bait or prey plasmid, so fused to a Gal4 BD or AD; also called C-terminal PQ-rich domain of DPY-22; MED12/DPY22
T1 sequence (looked up): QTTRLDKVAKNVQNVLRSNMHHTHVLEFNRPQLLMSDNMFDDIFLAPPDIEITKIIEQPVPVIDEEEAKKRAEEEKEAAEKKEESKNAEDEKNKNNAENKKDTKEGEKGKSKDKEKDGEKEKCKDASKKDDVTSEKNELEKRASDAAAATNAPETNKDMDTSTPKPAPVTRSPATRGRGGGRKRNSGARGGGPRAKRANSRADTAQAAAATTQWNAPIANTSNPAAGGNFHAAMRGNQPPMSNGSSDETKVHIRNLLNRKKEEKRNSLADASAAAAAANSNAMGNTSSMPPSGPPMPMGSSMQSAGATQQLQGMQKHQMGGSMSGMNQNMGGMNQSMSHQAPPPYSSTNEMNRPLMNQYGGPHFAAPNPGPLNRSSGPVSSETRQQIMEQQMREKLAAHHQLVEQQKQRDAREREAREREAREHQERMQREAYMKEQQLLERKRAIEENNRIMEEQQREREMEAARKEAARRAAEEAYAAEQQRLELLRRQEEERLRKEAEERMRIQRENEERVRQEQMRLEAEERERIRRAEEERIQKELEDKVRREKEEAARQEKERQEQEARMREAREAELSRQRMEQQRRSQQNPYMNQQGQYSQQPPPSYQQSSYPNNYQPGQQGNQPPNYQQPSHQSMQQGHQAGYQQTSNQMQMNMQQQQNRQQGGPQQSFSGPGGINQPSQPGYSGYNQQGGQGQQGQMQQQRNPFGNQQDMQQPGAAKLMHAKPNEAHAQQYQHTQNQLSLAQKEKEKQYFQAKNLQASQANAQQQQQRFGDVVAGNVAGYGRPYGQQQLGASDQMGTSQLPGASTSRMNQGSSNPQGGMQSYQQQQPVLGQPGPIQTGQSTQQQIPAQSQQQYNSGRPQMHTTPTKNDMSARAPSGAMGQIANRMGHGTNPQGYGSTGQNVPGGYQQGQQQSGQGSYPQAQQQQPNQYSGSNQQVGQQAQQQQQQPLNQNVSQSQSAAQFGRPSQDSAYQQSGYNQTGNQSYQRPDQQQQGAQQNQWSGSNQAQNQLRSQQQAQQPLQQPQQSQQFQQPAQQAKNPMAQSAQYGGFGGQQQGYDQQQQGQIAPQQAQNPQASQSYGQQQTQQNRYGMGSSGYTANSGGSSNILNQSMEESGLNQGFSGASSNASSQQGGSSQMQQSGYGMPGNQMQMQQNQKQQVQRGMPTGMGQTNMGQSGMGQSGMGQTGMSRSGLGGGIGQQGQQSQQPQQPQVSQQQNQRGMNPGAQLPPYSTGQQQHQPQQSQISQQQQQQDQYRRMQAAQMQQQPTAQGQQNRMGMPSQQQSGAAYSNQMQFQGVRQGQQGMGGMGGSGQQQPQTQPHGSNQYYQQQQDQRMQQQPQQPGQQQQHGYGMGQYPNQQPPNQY
Test: yeast two-hybrid
Description: The yeast two-hybrid assay was performed following the manufacturer's protocol (Clontech). Briefly, fresh Yeast Gold colonies (<1 week old) were cultured in YPD liquid medium at 30° C. to the O.D.600 of 0.5, harvested, washed, and resuspended in 1.1×TE/LiAc. 100 ng of bait and prey plasmids were mixed with […] of denatured salmon sperm carrier DNA and were transformed into competent yeast cells in the presence of 1×PEG/LiAc. The cell mix was then plated on both -Leu-Trp and -Leu-Trp-His-Ade dropout plates and was allowed to grow and 30° C. for 2-3 days. Single colonies that grew on the double and quadruple dropout plates were resuspended in H2O and respotted to fresh dropout plates, which were grown at 30° C. for 2 days. Images of the respotted plates were captured using a Canon Powershot A590 digital camera (Canon) and processed by Photoshop CS4 software (Adobe).
Two let-19 alleles contain missense mutations, and all five of the dpy-22 alleles contain nonsense mutations that truncate the C-terminal PQ-rich domain (FIG. 3C). In vertebrates, Med12 interacts with transcription factors through the PQ-rich domain to promote gene expression and tissue development (37-41). To determine if Mediator might specifically promote I4 neurogenesis by interacting with bHLH proneural factors, we performed a yeast two-hybrid assay. […]

B1: HLH-3 (other)
chain: MTASTSSTPSTSTKIPSSSKSSVTKQTKQKRNERERKRVDQVNQGFVLLQERVPKAAGNKAKLSKVETLREAARYIQELQKQLGMSSTSFHNSMPADFPTPEQSPVYPQSVCSMMAQTPSPSYTSPYYPPPQMMSSNQHDMSSHYYQESSSSSASTSGDHHSFYSHTETY
notes: Yeast two-hybrid fusion (Gal4 BD or AD); also called ASCL1/HLH3; C. elegans homolog of Ascl1/Mash1
  binding result: no binding

— patent publication US20200123499A1 (MIT, published 2020)
